Changes are numbered by the printed parent chain. Names and notes keep the numbering of the source.
B1: second rod domain of lamin A E262K (LMNA^E262K-rod2, residues 226-387) (domain or fragment, human, UniProt P02545 226-387, looked up)
chain: LVEIDNGKQREFESRLADALQELRAQHEDQVEQYKKKLEKTYSAKLDNARQSAERNSNLVGAAHEELQQSRIRIDSLSAQLSQLQKQLAAKEAKLRDLEDSLARERDTSRRLLAEKEREMAEMRARMQQQLDEYQELLDIKLALDMEIHAYRKLLEGEEERL
notes: lamin A (LMNA), human, second rod domain, residues 226-387, with the patient's variant p.Glu262Lys; source: bacterially expressed recombinant, purified
B2: second rod domain of lamin A (LMNA-rod2, residues 226-387) (domain or fragment, human, UniProt P02545 226-387, looked up)
chain: B1 chain with K37E
notes: lamin A (LMNA), human, second rod domain, residues 226-387; source: bacterially expressed recombinant, purified

Biological target: the molecule itself
Experiment: dynamic light scattering + other: atomic force microscopy; purified proteins at 0.1 and 10 uM in aqueous environment; ex situ AFM at 10 uM; self-association (oligomers or aggregates)

| Protein | binding result |
| --- | --- |
| B1 | binds |
| B2 | binds |

— publication PMC9649601, “The E262K mutation in Lamin A links nuclear proteostasis imbalance to laminopathy‐associated premature aging” (Aging Cell, 2022)
